Assay results: the supplement of paper PMC10065799, “High-throughput profiling of sequence recognition by tyrosine kinases and SH2 domains using bacterial peptide display” (eLife, 2023)

What follows are sequences tested against Hck (UniProt P08631) (assay: phosphorylation enrichment, bacterial display (enrichment ratio); higher = better substrate or ligand; peptides without Tyr show the background).
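Wherever SH2 binding enrichment of the phosphorylated peptide, bacterial display is given: peptide library displayed on the E. coli surface as eCPX fusions, selected cells deep-sequenced, score is each peptide's frequency after selection divided by its frequency in the input.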
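Wherever phosphorylation enrichment, bacterial display is given: 11-residue human phosphosite peptides and single-mutation variants displayed on the E. coli surface, counted by deep sequencing, each peptide's frequency after selection divided by its frequency in the unselected input library; frequency after pTyr selection over input frequency; kinase dosed for 20-30% of maximal phosphorylation in three min.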

Chain of Hck (P08631 whole entry, looked up, the tested form may be a part): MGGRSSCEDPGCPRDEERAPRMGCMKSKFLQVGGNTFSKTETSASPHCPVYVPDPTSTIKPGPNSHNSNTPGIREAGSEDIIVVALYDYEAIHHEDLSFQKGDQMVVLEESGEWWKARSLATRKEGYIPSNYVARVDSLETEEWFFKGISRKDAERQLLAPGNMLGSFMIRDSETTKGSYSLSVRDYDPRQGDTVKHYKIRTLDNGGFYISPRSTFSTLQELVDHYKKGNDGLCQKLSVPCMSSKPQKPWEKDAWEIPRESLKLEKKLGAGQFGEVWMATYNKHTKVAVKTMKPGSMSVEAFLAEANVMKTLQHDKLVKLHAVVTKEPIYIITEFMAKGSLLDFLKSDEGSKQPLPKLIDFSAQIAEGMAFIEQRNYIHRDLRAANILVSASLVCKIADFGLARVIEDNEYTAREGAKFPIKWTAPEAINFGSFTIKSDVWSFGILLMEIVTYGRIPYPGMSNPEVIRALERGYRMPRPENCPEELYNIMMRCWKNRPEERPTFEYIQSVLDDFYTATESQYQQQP

| Sequence | phosphorylation enrichment |
| --- | --- |
| VSLEAYCKHKF [RXRA_Y403_A398V_YF] | 0.353 |
| FEGAIYRKDVG [GART_Y417] | 0.514 |
| SEQNNYSRVAN [CWC22_Y797_R794Q] | 0.458 |
| ETWHNYHKFDS [MATR3_Y243_S240W] | 0.448 |
| RRIHRYRGHLW [VHL_Y112_S111R] | 0.462 |
| SRIWVYNHFRC [BRCA2_Y2621_W2626C_YF] | 0.543 |
| TDLAYYLVRKG [ASL_Y376] | 0.716 |
| LTDLRYKVSGL | 0.377 |
| PLDGEYFTHQI [TP53_Y327_L330H] | 1.65 |
| KDKLPYLFDDP [GPX2_Y125_P126L_YF] | 0.468 |
| HKLSFCEFDFE [BTK_Y40_Y40C_YF] | 0.83 |
| NNKKDYYDMYE [SLC26A3_Y526_K521N] | 0.728 |
| LLTALYFISWG [KCNH2_Y780_R784W] | 2.03 |
| YQKDVYNIPPS [NEDD9_Y177_D178N] | 2.34 |
| AAGGRYFGLVG [HARS1_Y363_D364Y_YF] | 0.354 |
| LRSELYFLIAR [PHIP_Y16] | 1.93 |

Each sequence was assayed against Jak2 (UniProt O60674) in the same assay as above.
Chain of Jak2 (O60674 whole entry, looked up): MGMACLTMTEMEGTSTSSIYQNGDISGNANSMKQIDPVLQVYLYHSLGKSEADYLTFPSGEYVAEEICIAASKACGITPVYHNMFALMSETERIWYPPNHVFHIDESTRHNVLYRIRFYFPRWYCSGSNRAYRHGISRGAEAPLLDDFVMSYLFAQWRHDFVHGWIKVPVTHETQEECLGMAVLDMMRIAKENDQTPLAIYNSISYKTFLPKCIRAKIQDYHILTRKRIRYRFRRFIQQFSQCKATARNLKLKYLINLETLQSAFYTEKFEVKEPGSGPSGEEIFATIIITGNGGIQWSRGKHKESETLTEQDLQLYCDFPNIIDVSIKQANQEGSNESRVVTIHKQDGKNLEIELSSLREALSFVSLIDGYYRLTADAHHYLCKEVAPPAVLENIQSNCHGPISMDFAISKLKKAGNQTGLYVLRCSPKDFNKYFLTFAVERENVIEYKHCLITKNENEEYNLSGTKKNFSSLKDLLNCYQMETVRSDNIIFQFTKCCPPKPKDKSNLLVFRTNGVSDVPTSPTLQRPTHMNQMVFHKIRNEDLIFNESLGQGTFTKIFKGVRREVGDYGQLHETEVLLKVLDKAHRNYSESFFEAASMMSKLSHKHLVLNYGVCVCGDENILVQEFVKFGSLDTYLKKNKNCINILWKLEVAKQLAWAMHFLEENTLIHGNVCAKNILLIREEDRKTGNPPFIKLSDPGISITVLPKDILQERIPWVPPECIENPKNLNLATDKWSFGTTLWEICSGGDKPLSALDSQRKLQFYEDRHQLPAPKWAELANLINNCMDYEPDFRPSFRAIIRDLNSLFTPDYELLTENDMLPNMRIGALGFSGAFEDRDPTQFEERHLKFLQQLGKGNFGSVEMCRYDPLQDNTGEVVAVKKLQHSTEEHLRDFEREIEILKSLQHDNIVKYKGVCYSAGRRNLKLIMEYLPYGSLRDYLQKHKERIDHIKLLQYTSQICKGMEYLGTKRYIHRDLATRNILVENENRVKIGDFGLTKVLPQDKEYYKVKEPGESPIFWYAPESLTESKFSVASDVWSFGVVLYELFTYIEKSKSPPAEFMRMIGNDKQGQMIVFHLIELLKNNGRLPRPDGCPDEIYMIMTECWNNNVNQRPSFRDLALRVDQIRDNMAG

| Sequence | phosphorylation enrichment |
| --- | --- |
| VSLEAYCKHKF [RXRA_Y403_A398V_YF] | 1.11 |
| FEGAIYRKDVG [GART_Y417] | 0.467 |
| SEQNNYSRVAN [CWC22_Y797_R794Q] | 0.535 |
| ETWHNYHKFDS [MATR3_Y243_S240W] | 0.71 |
| RRIHRYRGHLW [VHL_Y112_S111R] | 0.375 |
| SRIWVYNHFRC [BRCA2_Y2621_W2626C_YF] | 1.19 |
| TDLAYYLVRKG [ASL_Y376] | 2.05 |
| LTDLRYKVSGL | 0.575 |
| PLDGEYFTHQI [TP53_Y327_L330H] | 0.99 |
| KDKLPYLFDDP [GPX2_Y125_P126L_YF] | 1.01 |
| HKLSFCEFDFE [BTK_Y40_Y40C_YF] | 2.48 |
| NNKKDYYDMYE [SLC26A3_Y526_K521N] | 0.735 |
| LLTALYFISWG [KCNH2_Y780_R784W] | 1.95 |
| YQKDVYNIPPS [NEDD9_Y177_D178N] | 0.805 |
| AAGGRYFGLVG [HARS1_Y363_D364Y_YF] | 0.575 |
| LRSELYFLIAR [PHIP_Y16] | 3.62 |

Each sequence was assayed against MERTK (UniProt Q12866) in the same assay as above.
Chain of MERTK (Q12866 whole entry, looked up): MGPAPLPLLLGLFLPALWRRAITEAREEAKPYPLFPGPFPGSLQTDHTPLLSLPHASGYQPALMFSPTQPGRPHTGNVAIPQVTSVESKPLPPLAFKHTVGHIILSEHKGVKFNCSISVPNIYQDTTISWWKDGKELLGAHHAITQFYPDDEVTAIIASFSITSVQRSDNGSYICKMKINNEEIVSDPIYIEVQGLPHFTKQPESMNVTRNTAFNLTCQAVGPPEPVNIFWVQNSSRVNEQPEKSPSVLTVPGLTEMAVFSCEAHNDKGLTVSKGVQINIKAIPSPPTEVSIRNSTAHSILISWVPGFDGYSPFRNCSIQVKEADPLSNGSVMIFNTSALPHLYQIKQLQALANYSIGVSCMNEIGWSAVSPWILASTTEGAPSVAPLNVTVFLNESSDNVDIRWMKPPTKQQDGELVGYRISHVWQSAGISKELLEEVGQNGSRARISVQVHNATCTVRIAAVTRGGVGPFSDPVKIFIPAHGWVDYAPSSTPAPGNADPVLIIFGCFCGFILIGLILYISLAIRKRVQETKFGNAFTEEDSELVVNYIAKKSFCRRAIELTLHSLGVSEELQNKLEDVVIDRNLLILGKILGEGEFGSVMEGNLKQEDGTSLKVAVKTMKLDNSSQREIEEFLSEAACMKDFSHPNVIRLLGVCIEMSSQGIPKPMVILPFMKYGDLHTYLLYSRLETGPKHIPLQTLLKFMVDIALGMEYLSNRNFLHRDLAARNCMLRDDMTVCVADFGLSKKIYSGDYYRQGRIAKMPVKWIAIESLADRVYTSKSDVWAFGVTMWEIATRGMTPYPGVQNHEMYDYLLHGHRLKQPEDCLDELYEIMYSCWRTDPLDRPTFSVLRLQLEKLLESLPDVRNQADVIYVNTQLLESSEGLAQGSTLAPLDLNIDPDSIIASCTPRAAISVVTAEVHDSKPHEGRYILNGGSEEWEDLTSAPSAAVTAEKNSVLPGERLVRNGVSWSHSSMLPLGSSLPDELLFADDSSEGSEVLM

| Sequence | phosphorylation enrichment |
| --- | --- |
| VSLEAYCKHKF [RXRA_Y403_A398V_YF] | 0.443 |
| FEGAIYRKDVG [GART_Y417] | 0.288 |
| SEQNNYSRVAN [CWC22_Y797_R794Q] | 0.4 |
| ETWHNYHKFDS [MATR3_Y243_S240W] | 0.458 |
| RRIHRYRGHLW [VHL_Y112_S111R] | 0.575 |
| SRIWVYNHFRC [BRCA2_Y2621_W2626C_YF] | 0.466 |
| TDLAYYLVRKG [ASL_Y376] | 0.684 |
| LTDLRYKVSGL | 0.427 |
| PLDGEYFTHQI [TP53_Y327_L330H] | 0.656 |
| KDKLPYLFDDP [GPX2_Y125_P126L_YF] | 0.426 |
| HKLSFCEFDFE [BTK_Y40_Y40C_YF] | 0.776 |
| NNKKDYYDMYE [SLC26A3_Y526_K521N] | 0.483 |
| LLTALYFISWG [KCNH2_Y780_R784W] | 3.92 |
| YQKDVYNIPPS [NEDD9_Y177_D178N] | 1.64 |
| AAGGRYFGLVG [HARS1_Y363_D364Y_YF] | 0.395 |
| LRSELYFLIAR [PHIP_Y16] | 7.59 |

The sequences below were run on c-Abl (mouse) in the same assay as above.

| Sequence | phosphorylation enrichment |
| --- | --- |
| VSLEAYCKHKF [RXRA_Y403_A398V_YF] | 0.898 |
| FEGAIYRKDVG [GART_Y417] | 0.457 |
| SEQNNYSRVAN [CWC22_Y797_R794Q] | 0.447 |
| ETWHNYHKFDS [MATR3_Y243_S240W] | 0.48 |
| RRIHRYRGHLW [VHL_Y112_S111R] | 0.382 |
| SRIWVYNHFRC [BRCA2_Y2621_W2626C_YF] | 0.976 |
| TDLAYYLVRKG [ASL_Y376] | 0.672 |
| LTDLRYKVSGL | 0.565 |
| PLDGEYFTHQI [TP53_Y327_L330H] | 1.5 |
| KDKLPYLFDDP [GPX2_Y125_P126L_YF] | 0.557 |
| HKLSFCEFDFE [BTK_Y40_Y40C_YF] | 1.78 |
| NNKKDYYDMYE [SLC26A3_Y526_K521N] | 0.537 |
| LLTALYFISWG [KCNH2_Y780_R784W] | 1.09 |
| YQKDVYNIPPS [NEDD9_Y177_D178N] | 0.584 |
| AAGGRYFGLVG [HARS1_Y363_D364Y_YF] | 0.626 |
| LRSELYFLIAR [PHIP_Y16] | 1.63 |

The sequences below were run on c-Src in the same assay as above.

| Sequence | phosphorylation enrichment |
| --- | --- |
| VSLEAYCKHKF [RXRA_Y403_A398V_YF] | 0.556 |
| FEGAIYRKDVG [GART_Y417] | 0.393 |
| SEQNNYSRVAN [CWC22_Y797_R794Q] | 0.35 |
| ETWHNYHKFDS [MATR3_Y243_S240W] | 0.439 |
| RRIHRYRGHLW [VHL_Y112_S111R] | 0.49 |
| SRIWVYNHFRC [BRCA2_Y2621_W2626C_YF] | 0.483 |
| TDLAYYLVRKG [ASL_Y376] | 0.783 |
| LTDLRYKVSGL | 0.46 |
| PLDGEYFTHQI [TP53_Y327_L330H] | 1.61 |
| KDKLPYLFDDP [GPX2_Y125_P126L_YF] | 0.557 |
| HKLSFCEFDFE [BTK_Y40_Y40C_YF] | 1.03 |
| NNKKDYYDMYE [SLC26A3_Y526_K521N] | 0.591 |
| LLTALYFISWG [KCNH2_Y780_R784W] | 2.27 |
| YQKDVYNIPPS [NEDD9_Y177_D178N] | 3.29 |
| AAGGRYFGLVG [HARS1_Y363_D364Y_YF] | 0.461 |
| LRSELYFLIAR [PHIP_Y16] | 1.5 |

These sequences were tested against Grb2 SH2 (UniProt P62993) (assay: SH2 binding enrichment of the phosphorylated peptide, bacterial display (enrichment ratio); higher = better substrate or ligand; peptides without Tyr show the background).
Chain of Grb2 SH2 (P62993 whole entry, looked up): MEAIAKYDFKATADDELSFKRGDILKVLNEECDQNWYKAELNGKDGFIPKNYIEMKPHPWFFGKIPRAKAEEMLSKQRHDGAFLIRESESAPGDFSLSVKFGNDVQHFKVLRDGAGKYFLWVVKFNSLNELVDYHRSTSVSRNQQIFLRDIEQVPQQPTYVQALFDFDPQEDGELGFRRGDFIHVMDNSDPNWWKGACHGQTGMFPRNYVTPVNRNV

| Sequence | SH2 binding enrichment |
| --- | --- |
| VSLEAYCKHKF [RXRA_Y403_A398V_YF] | 0.702 |
| FEGAIYRKDVG [GART_Y417] | 0.664 |
| SEQNNYSRVAN [CWC22_Y797_R794Q] | 0.784 |
| ETWHNYHKFDS [MATR3_Y243_S240W] | 0.865 |
| RRIHRYRGHLW [VHL_Y112_S111R] | 0.532 |
| SRIWVYNHFRC [BRCA2_Y2621_W2626C_YF] | 0.869 |
| TDLAYYLVRKG [ASL_Y376] | 0.95 |
| LTDLRYKVSGL | 0.761 |
| PLDGEYFTHQI [TP53_Y327_L330H] | 1.12 |
| KDKLPYLFDDP [GPX2_Y125_P126L_YF] | 0.731 |
| HKLSFCEFDFE [BTK_Y40_Y40C_YF] | 1.11 |
| NNKKDYYDMYE [SLC26A3_Y526_K521N] | 0.753 |
| LLTALYFISWG [KCNH2_Y780_R784W] | 1.01 |
| YQKDVYNIPPS [NEDD9_Y177_D178N] | 0.808 |
| AAGGRYFGLVG [HARS1_Y363_D364Y_YF] | 1.06 |
| LRSELYFLIAR [PHIP_Y16] | 1.44 |

Each sequence was assayed against SHP2-C SH2 in the same assay as above.

| Sequence | SH2 binding enrichment |
| --- | --- |
| VSLEAYCKHKF [RXRA_Y403_A398V_YF] | 0.674 |
| FEGAIYRKDVG [GART_Y417] | 0.582 |
| SEQNNYSRVAN [CWC22_Y797_R794Q] | 3.97 |
| ETWHNYHKFDS [MATR3_Y243_S240W] | 0.791 |
| RRIHRYRGHLW [VHL_Y112_S111R] | 0.531 |
| SRIWVYNHFRC [BRCA2_Y2621_W2626C_YF] | 0.589 |
| TDLAYYLVRKG [ASL_Y376] | 1.41 |
| LTDLRYKVSGL | 0.498 |
| PLDGEYFTHQI [TP53_Y327_L330H] | 0.717 |
| KDKLPYLFDDP [GPX2_Y125_P126L_YF] | 0.773 |
| HKLSFCEFDFE [BTK_Y40_Y40C_YF] | 0.937 |
| NNKKDYYDMYE [SLC26A3_Y526_K521N] | 0.54 |
| LLTALYFISWG [KCNH2_Y780_R784W] | 0.891 |
| YQKDVYNIPPS [NEDD9_Y177_D178N] | 0.6 |
| AAGGRYFGLVG [HARS1_Y363_D364Y_YF] | 0.828 |
| LRSELYFLIAR [PHIP_Y16] | 1.03 |

These sequences were tested against c-Src SH2 in the same assay as above.

| Sequence | SH2 binding enrichment |
| --- | --- |
| VSLEAYCKHKF [RXRA_Y403_A398V_YF] | 0.337 |
| FEGAIYRKDVG [GART_Y417] | 0.451 |
| SEQNNYSRVAN [CWC22_Y797_R794Q] | 1.66 |
| ETWHNYHKFDS [MATR3_Y243_S240W] | 2.09 |
| RRIHRYRGHLW [VHL_Y112_S111R] | 0.389 |
| SRIWVYNHFRC [BRCA2_Y2621_W2626C_YF] | 0.558 |
| TDLAYYLVRKG [ASL_Y376] | 0.795 |
| LTDLRYKVSGL | 0.397 |
| PLDGEYFTHQI [TP53_Y327_L330H] | 0.429 |
| KDKLPYLFDDP [GPX2_Y125_P126L_YF] | 0.347 |
| HKLSFCEFDFE [BTK_Y40_Y40C_YF] | 0.622 |
| NNKKDYYDMYE [SLC26A3_Y526_K521N] | 1.57 |
| LLTALYFISWG [KCNH2_Y780_R784W] | 0.666 |
| YQKDVYNIPPS [NEDD9_Y177_D178N] | 0.495 |
| AAGGRYFGLVG [HARS1_Y363_D364Y_YF] | 0.608 |
| LRSELYFLIAR [PHIP_Y16] | 1.05 |
